From patent US20140024606A1

Columns and labels:
[1] = biological target: IL-1 receptor (IL-1R) on cells (UniProt P14778); experiment: cell-based or functional assay
[2] = biological target: CD36 on RAW 264.7 murine macrophage cells (murine) (UniProt Q08857); experiment: cell-based or functional assay
[3] = biological target: recombinant soluble His-tagged CD36; experiment: SPR; His-tagged soluble CD36 immobilized, peptide 100 nM to 30 µM, Langmuir isotherm fit
Sequence of recombinant soluble His-tagged CD36 (P16671 30-439): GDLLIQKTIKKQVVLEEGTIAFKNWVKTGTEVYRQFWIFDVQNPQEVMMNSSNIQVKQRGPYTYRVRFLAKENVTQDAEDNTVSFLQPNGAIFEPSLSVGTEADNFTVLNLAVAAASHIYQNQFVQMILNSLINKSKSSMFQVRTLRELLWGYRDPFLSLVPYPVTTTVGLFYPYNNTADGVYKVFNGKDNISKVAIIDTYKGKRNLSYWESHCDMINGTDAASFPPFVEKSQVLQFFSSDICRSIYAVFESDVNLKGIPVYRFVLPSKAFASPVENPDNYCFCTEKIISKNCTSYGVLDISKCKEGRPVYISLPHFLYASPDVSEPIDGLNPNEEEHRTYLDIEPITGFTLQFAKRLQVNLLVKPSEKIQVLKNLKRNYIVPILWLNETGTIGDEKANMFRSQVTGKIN

Sequence of IL-1 receptor (IL-1R) on cells (P14778 18-569 limits assumed): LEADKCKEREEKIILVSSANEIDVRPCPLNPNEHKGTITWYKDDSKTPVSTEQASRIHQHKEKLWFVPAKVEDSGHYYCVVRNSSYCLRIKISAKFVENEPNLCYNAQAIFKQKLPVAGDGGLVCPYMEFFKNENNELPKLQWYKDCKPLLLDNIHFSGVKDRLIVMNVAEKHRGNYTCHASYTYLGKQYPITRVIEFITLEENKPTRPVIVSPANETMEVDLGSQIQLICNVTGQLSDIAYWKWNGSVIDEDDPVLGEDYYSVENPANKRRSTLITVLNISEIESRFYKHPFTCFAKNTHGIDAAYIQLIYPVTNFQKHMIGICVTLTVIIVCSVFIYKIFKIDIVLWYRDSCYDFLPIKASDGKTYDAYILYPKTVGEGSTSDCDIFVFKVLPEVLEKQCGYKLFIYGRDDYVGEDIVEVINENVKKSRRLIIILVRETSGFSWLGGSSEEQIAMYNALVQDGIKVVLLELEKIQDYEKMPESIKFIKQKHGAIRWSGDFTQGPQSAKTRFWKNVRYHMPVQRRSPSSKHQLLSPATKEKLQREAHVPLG
Sequence of CD36 on RAW 264.7 murine macrophage cells (murine) (Q08857 whole entry): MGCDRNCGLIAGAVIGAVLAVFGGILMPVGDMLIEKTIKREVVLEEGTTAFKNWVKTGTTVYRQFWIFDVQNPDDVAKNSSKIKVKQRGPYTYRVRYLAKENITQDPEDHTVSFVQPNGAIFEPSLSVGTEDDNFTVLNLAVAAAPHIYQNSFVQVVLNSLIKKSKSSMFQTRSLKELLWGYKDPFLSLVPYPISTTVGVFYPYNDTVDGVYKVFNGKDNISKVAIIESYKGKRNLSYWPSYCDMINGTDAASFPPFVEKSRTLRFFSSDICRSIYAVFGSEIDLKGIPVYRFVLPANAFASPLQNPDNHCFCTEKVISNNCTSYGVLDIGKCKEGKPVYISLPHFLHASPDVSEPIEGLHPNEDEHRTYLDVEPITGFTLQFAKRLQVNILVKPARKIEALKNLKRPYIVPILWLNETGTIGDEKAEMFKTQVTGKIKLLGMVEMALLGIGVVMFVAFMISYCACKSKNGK

Row | Substance | IL-1β-induced human thymocyte (TF-1) proliferation [1] [%] | JNK-kinase cellular assay EC50 [2] [µM] | Kd [3] [µM] | ΔλSPR (nm) [3] [nm] | decrease in NF-KB activation in HEK Blue cells (SEAP reporter, OD620) [1] [%]
1 | [(R)-Agl^3]-101.10 (peptide) | 41 | – | – | – | –
2 | [Nad^3]-101.10 (D-Arg-D-Tyr-Nad-D-Val-D-Glu-D-Leu-D-Ala-NH2) (peptide) | 53 | – | – | – | –
3 | [Nai^3]-101.10 (D-Arg-D-Tyr-Nai-D-Val-D-Glu-D-Leu-D-Ala-NH2) (peptide) | 77 | – | – | – | 65
4 | [N-Amino-4-benzylimidazolin-2-one^4]GHRP-6 (His-D-Trp-Ala-(N-amino-4-benzyl-imidazolin-2-one)-D-Phe-Lys-NH2), 31b (peptide) | – | > 10 | 11 | 1.6 | –
5 | [azaTyr^4]GHRP-6 (His-D-Trp-Ala-AzaTyr-D-Phe-Lys-NH2) (peptide) | – | 0.214 | 5 | 1.8 | –

Now from value to substance:

Row | IL-1β-induced human thymocyte (TF-1) proliferation [1] [%] | JNK-kinase cellular assay EC50 [2] [µM] | Kd [3] [µM] | ΔλSPR (nm) [3] [nm] | decrease in NF-KB activation in HEK Blue cells (SEAP reporter, OD620) [1] [%] | Substance
6 | 41 | – | – | – | – | [Nap^3]-101.10 (D-Arg-D-Tyr-Nap-D-Val-D-Glu-D-Leu-D-Ala-NH2) (peptide)
7 | – | 0.0554 | 4.9 | 1.1 | – | [N-Amino-4-methylimidazolin-2-one^4]GHRP-6 (His-D-Trp-Ala-(N-amino-4-methyl-imidazolin-2-one)-D-Phe-Lys-NH2), RS-31a (peptide)
8 | – | – | – | – | 100 | Kineret (from UniProt P18510 26-177) (ligand)
